Laboratory results taken from PMC9100220, “Fluorescence Lifetime Phasor Analysis of the Decamer–Dimer Equilibrium of Human Peroxiredoxin 1” (International Journal of Molecular Sciences, 2022).

Key:
[1] = target: the molecule itself; assay: SEC; Superdex 200 5/150 GL, PBS pH 7.4 with 1 mM DTT, room temperature; low hPrx1 concentrations (e.g. 0.5 uM): peak at 5.2 min
[2] = target: the molecule itself; assay: SEC; Superdex 200 5/150 GL, PBS pH 7.4 with 1 mM DTT, room temperature; high hPrx1 concentrations (e.g. 20 uM): peak at 3.9 min

B1: human peroxiredoxin 1 (enzyme, UniProt Q06830 1-199, looked up)
chain: MSSGNAKIGHPAPNFKATAVMPDGQFKDISLSDYKGKYVVFFFYPLDFTFVCPTEIIAFSDRAEEFKKLNCQVIGASVDSHFCHLAWVNTPKKQGGLGPMNIPLVSDPKRTIAQDYGVLKADEGISFRGLFIIDDKGILRQITVNDLPVGRSVDETLRLVQAFQFTDKHGEVCPAGWKPGSDTIKPDVQKSKEYFSKQK
notes: human peroxiredoxin 1 (hPrx1), recombinant; The protein is an obligate homodimer; five dimers form a ring-shaped decamer; It was used in the reduced state, with 1 mM DTT in all measurements; also called hPrx1; human Prx1; source: E. coli BL21(DE3), purified from bacterial lysates; reduced with 10 mM DTT before all experiments
stoichiometry N [1]: 2
stoichiometry N [2]: 10
